Reference: the nanobody polyreactivity screen of Harvey et al. (2022)

assay: yeast display, Sf9 membrane polyspecificity reagent, FACS + sequencing; frameworks hold sequencing errors
Procedure, shortened: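 Genes from sorted yeast were amplified by colony PCR, read by MiSeq 2 × 250 sequencing and filtered on CDR length. These cells carried a synthetic nanobody library in Saccharomyces cerevisiae BJ5465 and were sorted by FACS into low and high (top ~1%) gates on anti-HA and streptavidin fluorescence. Polyreactivity is labelled according to the gate of origin.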

Row | Sequence | polyreactivity (PSR sort gate)
1 | QFQLVEAGGGLVQAGGSLRLSCAASGSIIPNYNMGWYRQAPAKETELVAAMSISGGTTYYADSVKGRFTISRDNAKNTVYLQMNSLKPEETAVYYCAAVEYYWFLGYYYRYDYWGQGTQVTVSS | high polyreactivity
2 | QVQLVESGGGLVQAGGSLRLSCAASGFTFGTYAMGWYRQAPGKERELVAAISKRGGSTYYADSVKGRFTISRDNAKNTVYLQMNSLKPEDTAVYYCATGSYTTYGYGYWGQGTQVTVSS | high polyreactivity
3 | QVQLVESGGGLVQAGGSLRLSCAASGFIFSHYAMGWYRQSPGKEREFVATSSKRGGSTTYADSVKGRFTISRDNAKNTVYLQMNSLKPEDTAVYYCAADRYRSFERYDYWGQGTQVTVSS | high polyreactivity
4 | QVQLVESGGGLVQAGGSLRLSCAASGITFPAYAMGWYRQAPGKERELVAAISRRGGSTYYADSVKGRFTISRDYAKNTVYLQMNSLKPEDTAVYYCNADIKQRSDRYDYWGQGTQVTVSS | high polyreactivity
5 | QVQLVESGGGLVQAGGSLRLRCAASGSIFNSYAMGWYRQAPGKERELVPAISRRGGSTYYADSVKGRFTISRDNAKNTVYLQMHSLKPEDTAVYYCNATRPRLTYLGVGYGYDYWGQGTQVTVSS | high polyreactivity
6 | QVHLVESGGGLVQAGGSLRLSCAASGNIFGLYAMGWYRQAPGKERELVAAIRWIGGRTYYADSVKGRFTISRDNAKNTVYLQMNSLKPEDTAVYYCNAEYIVYYRGYDYWGHGTQVTVSS | high polyreactivity
7 | QVQLVESGGGLVKAGGSLRLSCAASGSIFDGNAMGWYRQAPGKERELVADISRGGSTYYADSVKGRFTISRDNAKNTVYLLMNSLKPEDTAVYYCNVEFFFWPYEYGYWGQGTQVTVSS | low polyreactivity
8 | QVQLVESGGGLVQAGGSLRLSCAASGRTFKYNAMGWYRQAPGKERELVAAISSRGGSTYYADSVKGRFTISRDNAKNTVYLQMISLKPEDTAVYYGANATSSSEYGYDYWGQGTQVTVSS | high polyreactivity
9 | QVQLVESGGGLVQAGGSLRLSCAASGRTFGRYAMGWYRQAPGKERELVAVISWSDGGTNYADSVKGRFTISRDNAKNTVYLQMNSLKPEDTAVYYCNAELSFRYPVFRELDYWGQGTQVTVSS | low polyreactivity
10 | QVQLVESGGGLVQAGGSLRLICAASGRTFRKYAMGWYRQAPGKERELVAAINRGGTTKYADSVKGRFTISRDNAKNTVYLQMNSLKPEDTAVYYCNAAYGGVFFYAYDYWGQGTQVTVSS | low polyreactivity
11 | QVQLVESGGGLVQAGGSLRLSCAASGGIFLKYAMAWYRQAPGKERELVASINTGVRTYYADSVKGRFTISRDNAKNTVYLQMNSLKPEDTAVYYCYADGGGPRKYTRTRGHWGQGTQVTVSS | low polyreactivity
12 | QVQLVESGGGLVQAGGSLRLSCAASGNTFVGNAMGWYRQAPGKERELVAVITWSGGSTYYADSVKGRFTISRDNAKNTVYLQMNSLKPEDTAVYYCAARKFGTSVTHRGYWGQGTQVTVSS | low polyreactivity
13 | QVQLEESGGGLVQAGGSLRLSCAASGNILFKYAMGWNRQAPGKERELVASITSRGGSTYYADSVKGRFTISRDNAKNTVYLQMNSLKPEDTAVYYCAVDADEVTFDYWGQGTQVTVSS | low polyreactivity
14 | QVQLVESGGGLLQAGGSLRLSCAASGRIFSIYAMGWYRPAPGKEREMVAAIRRGGSTSYADSVKGRFTISRDNAKNTVYLLMNSLKPEDTAVYYCAARLRYLGYDYWGQGTQVTVSS | high polyreactivity
15 | QVQLVESGGGLVQAGGSLRLSCAASGRICWGYAMGWSRQAPGKERELVARITSGGDTYYADSVKGRFTISRDNAKNTVYLQMNSLKPEDTAVYYCAKSPAVKPYAYRESGFIYDYWGQGTQVTVSS | low polyreactivity
16 | QVHLVESGGGLVQAGGSLRLSCAASGSTFYNNAMGLYRQAPGKERELVASISLSAGSTYYADSVKGRFTISRDNAKNTVYLQMNSMKPEDTAVYYCAAESVAILVLVYPKGYGYWGQGTQVTVSS | low polyreactivity
17 | QVQLVESGGGLVQAGGRLRLSCAASARIFYSKVMGWYRQAPGKERELVAAISGRTGGTYYADSVKGRFTISRDNAKNTVYLQMNSLKPEDTAVYYCAARVIDYYGSGPYDYWGQGTQVTVSS | low polyreactivity
18 | QVQLVESGGGLVQAGGSLRLSCAASGRIFRGNTMGWYRQAPGKERELVAAITRGGSTSYADSVKGRFTISRDNAKNTVYLQMNSLKPEDTAVYYCATRTHGEGTRRDSWGQGTQVTVSS | low polyreactivity
19 | QVQLVESGGGLVQAGGSLRLSCAASGSIFHANAMGWYRQAPGKERELVAVISQGGGSTYYADSVKGRFTISRDNAKNTVYLQMNSLKPEDTAFYYCAAYYYYSAYGDDYWGQGTQVTVSS | high polyreactivity
20 | QVQLVESGGGLVQAGGSLRLSCDASGSIFAPNSMGWYRQAPGKERELVAAITSSGCRTYYADSVKGRFTISRDNAMNTFYLQMNSLKPVDSAVYYWIAGFYVRRDYDYWGQGTQVTVSS | low polyreactivity
21 | QVQLEESGGGLVQAGGSLRLSCAASGRILSLYAMGRYRQAPGKERELVAAIRWSGSRTYYADSVKGRFTISRDNAKNTVYLQMNSLKPEDTAVYYCAAESHYPHKPGSDYWGQGTQVTVSS | high polyreactivity
22 | QVQLVESGVGLVQAGGSLRLSCAASGRTFSTNAMGWYIQAPGKERELVAAITSRGGSTYYADSVKGRFTISRDNAKNTVYLQMNSLKPEDTAVYYCAVDPLYSKTHYVTLGYYYWGQGTQVTVSS | low polyreactivity

Row | Sequence | polyreactivity (PSR sort gate)
23 | QVQLVESGGGLVQAGGSLRLSCAASGSTFGYYAMGWYRQAPGKERELVAVIRRGGSTNYADSVKGRFTISRDNAKNTVYLQMNSLKPEDTAVYYCNKYRYAGITAEFYYWGQGTQVTVSS | high polyreactivity
24 | QVQLVESGGGLVQAGGSLRLSCAASGSIFRPYAMGWYRQAPGKERELVATINQSGSSTYYADSVKGRFTISRDNAKNTVYLQKNSLKPEDTAVYYCAVVYTYHGYTYDYWGQGTQVTVSS | low polyreactivity
25 | QVQLVESGGGLLQAGGSLRLSCAASGSLFGGYAMAWYRQAPGKEREFGAAISGRGASTYYADSVKGRFTISRDNAKTTVYLQMNSLKPEDTAVYDCNARADGRIDGHSATYGYWGQGTQVTVSS | high polyreactivity
26 | QVQLVESGGGLVQAGGSLRLSCAASGFTFSYNAMGWYRQAPGKERELVAAITYSAGNTYYADSVKGRFTISRDNAKNTVYLQMNSLKPEDTAVYYCNAVTKHRAITNMDYWGQGTQVTVSS | high polyreactivity
27 | QVHLVESGGGLVQAGGSLRLSCAASGLTFLYNTMGWYRQAPGKEREFVAAITISGGTTYYADSVKGRFTISRDNAKNTVYLQMNSLKREDTAVYYCAADYNSTERGTNMDYWGQGTQVTVSS | low polyreactivity
28 | QDQLVESGGGLVQAGGSLRLSCAASGSIFWVYVMGWYSQAPGKERELVAAITNGGSTDYADSVKGRFTISRDNAKNTVYLQLNSLKPEDTAVYYCAKRSPIWGRILITYDYWGQGTQVTVSS | low polyreactivity
29 | QVQLVESGGGLVQAGGSLRLSCAASGIIFEPYAMGWYRQAPGKERELVASIRWSDGSTFYADSVKGRFTISRDNAKNTVYLQMNSLKPEDTAVYYCNAVYEHRRVGWVTIDYGYWGQGSQVTVSS | low polyreactivity
30 | QVQLQESGGGLVQAGGSLRLSCAASGNISVTGFMGWYRQAPGKERELVASIGIGGTTYYADSVKGRFSISRDNAKNTVYLQMNSLKPEDTAVYYCAARVIYYYGSGPYDYWGQGTQVTVSS | low polyreactivity
31 | QVQLVESGGGLVQAGGSLRISCAASGSTFRYYAMGWYKQAPGKERELVAAITTSGGRTYYADSVKGRFTISRDNAKNTVYLQMNSLKPEDTAVYYCAIRYSTPYLTDNFLSGPGYYYWGQGSQVTVSS | high polyreactivity
32 | QVQLVESGGGLVQAGGSLRLSFSASGSTFTSNAMGWYRQAPGKERELVASISGSGGRTYYADSVKGRFTISRDNAKNTVYLQMNSLKPEDTAVYYCNAESRNLYSTQFDYWGQGTQVTVSS | low polyreactivity
33 | QVQLVESGGGLVQAGGSLRLSCAASGFIFFYNAMGWYRQAPGKERELVAAISARGGSTYYADSVKGRFTISRDNAKNTVYLQMNSLKPEDTAVYYCNAVFPWPYVSRSIYWYYWGQGTQVTVSS | high polyreactivity
34 | QVQLVESGGGLVQAGGSLRLSCAASGSTFYVNAMGWYRQAPGTERELVAAIRSAGRTNYADSVKGRFTSSRDNAKNTVYLQMNSLKPEDTAVYYCAAEVPHWPYYGRLHDRDYWGQGTQVTVSS | low polyreactivity
35 | QVQLVESGGGLDQAGGSLRLSCAASVSNFEYYVMGWYRQAPGTERELVAVIRRSSGSTYYADSVKGRFTISRDNAKNTVYLQMNSLKPEDTAVYYCAARRYEPIIWHRMDYCGQGTQVTVSS | low polyreactivity
36 | QFQLVESGGGLVQAGGSLRLSCAASGRTFGTYAMGWYRQAPGKEREVVAAISTRGGRTFYADSVKGRFTISRDNAKNTVYLQMNSLKPEDTAVYYCAARGTDPGHKYEYWGQGTQVTVSS | high polyreactivity
37 | QVHLVESGGGLVQAGGSLRLSCAASGIIFRHKAMLWYRQAPGKERELVAAISSGGNTYYADSVKGRFTISRDNAKNTVYLLMNSLKPEDTAVYYFADDVQDRYHRAWYDSWGQGRQVTVSS | low polyreactivity
38 | QVQLVESGGGLVQAGGSLRLSCDASGITITEYARGWYRQAPGTERELVAVISSVGTMYYADSVKGRFTISRDNEKNTVYLQMKSLKPEDTAVYYCAADYTDDGEYPYWSGSDYWGQGTQVTVSS | low polyreactivity
39 | QVQLVESVGGLVQAGGSLRLSCAASGFTFGPYAMGWYRQSPGKERELVAPIDDSGGNTYYADSVKGRFTISRDNAKNTVYLQMNSLKQEDTAVYYCNAFGADYYHVYPAEDYWGQGNQVTVSS | low polyreactivity
40 | QVQLVESGGGLVQAGGSLRLSCAASGRIFWPYAMGWYRPAPGKERELVAAITSGGSTYYADSVKGRFTISRDNAKNTVYLQMNSLKPEVTAVYYCAKRSSGVSVPVAYGGIKRYNSWGQGTQVTVSS | low polyreactivity
41 | QVQLVESGGLLVQAGGSIRITCAASGSTLWFNAMGWYRQAPGKERELVAAINWSGGSTYYADSVKGRFSISRDNAKITVYVQMTSLKPEDTAVYYCAAFYQYVHYVWYDYWGQGSQVTVSS | low polyreactivity
42 | QVQLVESGGGLVQAGGSLRLSCAASGLTFWLYAMGWYRPAPGKERELVAAITRSGGSTSYADSVKGRFTISRDNAKNTVYLQMNSLKPEDTAVYYCNADSPGYTAVRLVEFDYWGQGTQVTVSS | low polyreactivity
43 | QVQLVESGGGLVQAGGSLRLSCAASGRTFIYNTMGGYRQAPGKERELVAAITGNGGSTYYADSVKGRFTISRDYEKNTVYFQMNSLKPEDTAVYYCNAVGFDQPRYYYWGQGTQVTVSS | high polyreactivity
